Results: patent US20190262431

T1: recombinant Shp-2
T1 sequence (Q06124 2-593, species assumed, looked up): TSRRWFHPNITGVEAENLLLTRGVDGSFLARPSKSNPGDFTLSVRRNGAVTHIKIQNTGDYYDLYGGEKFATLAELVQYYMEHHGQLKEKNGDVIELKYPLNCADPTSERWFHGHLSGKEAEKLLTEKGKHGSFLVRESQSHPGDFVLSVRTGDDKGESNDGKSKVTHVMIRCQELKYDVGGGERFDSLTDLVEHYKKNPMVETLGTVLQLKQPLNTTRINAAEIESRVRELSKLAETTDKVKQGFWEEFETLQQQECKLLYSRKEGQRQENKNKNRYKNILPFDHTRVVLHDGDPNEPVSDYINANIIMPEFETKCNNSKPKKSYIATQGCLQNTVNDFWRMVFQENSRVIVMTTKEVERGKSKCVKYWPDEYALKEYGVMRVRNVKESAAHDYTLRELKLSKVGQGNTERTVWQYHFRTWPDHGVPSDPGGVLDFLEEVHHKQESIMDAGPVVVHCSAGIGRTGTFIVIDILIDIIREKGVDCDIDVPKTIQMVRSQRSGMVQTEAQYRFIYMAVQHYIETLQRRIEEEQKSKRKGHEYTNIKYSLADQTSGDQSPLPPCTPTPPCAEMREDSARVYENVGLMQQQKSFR


Key:
[1] = biological target: active (phosphorylated) human Syk (Merck Millipore), P43405
recombinant Shp-2 = biological target: T1, recombinant Shp-2
[2] = biological target: inactive (non-phosphorylated) human Syk-GST (Life technologies), P43405

Protein | in vitro poly-ubiquitination of recombinant active Syk (Western blot) [1] | in vitro poly-ubiquitination of recombinant Shp-2 (recombinant Shp-2) | in vitro poly-ubiquitination of active Syk (Western blot) [1] | in vitro poly-ubiquitination of inactive Syk (Syk-GST) (Western blot) [2]
full length human Cbl-b (Abnova) (protein) MANSMNGRNPGGRGGNPRKGRILGIIDAIQDAVGPPKQAAADRRTVEKTWKLMDKVVRLCQNPKLQLKNSPPYILDILPDTYQHLRLILSKYDDNQKLAQLSENEYFKIYIDSLMKKSKRAIRLFKEGKERMYEEQSQDRRNLTKLSLIFSHMLAEIKAIFPNGQFQGDNFRITKADAAEFWRKFFGDKTIVPWKVFRQCLHEVHQISSGLEAMALKSTIDLTCNDYISVFEFDIFTRLFQPWGSILRNWNFLAVTHPGYMAFLTYDEVKARLQKYSTKPGSYIFRLSCTRLGQWAIGYVTGDGNILQTIPHNKPLFQALIDGSREGFYLYPDGRSYNPDLTGLCEPTPHDHIKVTQEQYELYCEMGSTFQLCKICAENDKDVKIEPCGHLMCTSCLTAWQESDGQGCPFCRCEIKGTEPIIVDPFDPRDEGSRCCSIIDPFGMPMLDLDDDDDREESLMMNRLANVRKCTDRQNSPVTSPGSSPLAQRRKPQPDPLQIPHLSLPPVPPRLDLIQKGIVRSPCGSPTGSPKSSPCMVRKQDKPLPAPPPPLRDPPPPPPERPPPIPPDNRLSRHIHHVESVPSRDPPMPLEAWCPRDVFGTNQLVGCRLLGEGSPKPGITASSNVNGRHSRVGSDPVLMRKHRRHDLPLEGAKVFSNGHLGSEEYDVPPRLSPPPPVTTLLPSIKCTGPLANSLSEKTRDPVEEDDDEYKIPSSHPVSLNSQPSHCHNVKPPVRSCDNGHCMLNGTHGPSSEKKSNIPDLSIYLKGDVFDSASDPVPLPPARPPTRDNPKHGSSLNRTPSDYDLLIPPLGEDAFDALPPSLPPPPPPARHSLIEHSKPPGSSSRPSSGQDLFLLPSDPFVDLASGQVPLPPARRLPGENVKTNRTSQDYDQLPSCSDGSQAPARPPKPRPRRTAPEIHHRKPHGPEAALENVDAKIAKLMGEGYAFEEVKRALEIAQNNVEVARSILREFAFPPPVSPRLNL | robust poly-ubiquitination of recombinant active Syk was observed | No poly-ubiquitination of recombinant Shp-2 was detected in these assays |  | 
human Cbl-b^29-483 (recombinant, GST fusion protein) (protein) IQDAVGPPKQAAADRRTVEKTWKLMDKVVRLCQNPKLQLKNSPPYILDILPDTYQHLRLILSKYDDNQKLAQLSENEYFKIYIDSLMKKSKRAIRLFKEGKERMYEEQSQDRRNLTKLSLIFSHMLAEIKAIFPNGQFQGDNFRITKADAAEFWRKFFGDKTIVPWKVFRQCLHEVHQISSGLEAMALKSTIDLTCNDYISVFEFDIFTRLFQPWGSILRNWNFLAVTHPGYMAFLTYDEVKARLQKYSTKPGSYIFRLSCTRLGQWAIGYVTGDGNILQTIPHNKPLFQALIDGSREGFYLYPDGRSYNPDLTGLCEPTPHDHIKVTQEQYELYCEMGSTFQLCKICAENDKDVKIEPCGHLMCTSCLTAWQESDGQGCPFCRCEIKGTEPIIVDPFDPRDEGSRCCSIIDPFGMPMLDLDDDDDREESLMMNRLANVRKCTDRQNSPVTSPGS |  |  | still exhibited poly-ubiquitination activity towards Syk | non-phosphorylated recombinant Syk showed strongly diminished poly-ubiquitination by Cbl-d^29-483
